Publication PMC10133315, “Overcoming adaptive resistance to anti-VEGF therapy by targeting CD5L”

Target: T1, CD5L (AIM) (Homo sapiens, UniProt O43866 20-347)
T1 sequence: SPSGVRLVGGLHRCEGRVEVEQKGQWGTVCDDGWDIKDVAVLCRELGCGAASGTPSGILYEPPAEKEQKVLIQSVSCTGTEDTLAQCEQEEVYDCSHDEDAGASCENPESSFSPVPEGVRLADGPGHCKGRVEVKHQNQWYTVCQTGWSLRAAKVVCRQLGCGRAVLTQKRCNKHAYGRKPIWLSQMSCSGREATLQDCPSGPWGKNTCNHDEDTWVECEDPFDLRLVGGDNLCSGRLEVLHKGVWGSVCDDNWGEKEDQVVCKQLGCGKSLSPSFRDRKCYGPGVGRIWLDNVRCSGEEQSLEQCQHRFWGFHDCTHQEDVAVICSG
Assay: MST; Cy5-S76.T 2 nM, CD5L titrated; MST: S11/S23 in binding buffer pH 7.4, 1 mM MgCl2, 0.1% Tween 20, 1 nM labelled protein; S76 in TBS; S76.T (Cy5, 2 nM) in 50 mM Tris-HCl pH 7.8, 150 mM NaCl, 0.05% Tween 20; temperature not stated
Conditions: protein: commercial; tags: His-tag; label: Cy5; hairpin

In the case of AGGUUGCAGCGUUCGACAGGAGGCUCACAACAG (structured_RNA, 2'-fluoro pyrimidines) [S76.T], the Kd is reported as 10.1 ± 2.3 nM.
